FireProtDB (doi:10.1021/bi00444a012)

Conditions: Bacillus amyloliquefaciens; pH 8; Thermal; DSC; Tris-HCl 5.0 mM; KCl 50 mM; reversible: yes; whole UniProt chain shown

B1: Subtilisin BPN' wild type, P00782 (protein)
chain: MRGKKVWISLLFALALIFTMAFGSTSSAQAAGKSNGEKKYIVGFKQTMSTMSAAKKKDVISEKGGKVQKQFKYVDAASATLNEKAVKELKKDPSVAYVEEDHVAHAYAQSVPYGVSQIKAPALHSQGYTGSNVKVAVIDSGIDSSHPDLKVAGGASMVPSETNPFQDNNSHGTHVAGTVAALNNSIGVLGVAPSASLYAVKVLGADGSGQYSWIINGIEWAIANNMDVINMSLGGPSGSAALKAAVDKAVASGVVVVAAAGNEGTSGSSSTVGYPGKYPSVIAVGAVDSSNQRASFSSVGPELDVMAPGVSIQSTLPGNKYGAYNGTSMASPHVAGAAALILSKHPNWTNTQVRSSLENTTTKLGDSFYYGKGLINVQAAAQ
Tm: 58.5 °C
heat capacity change of unfolding: 4.8 kcal/mol/K
unfolding enthalpy (calorimetric): 88.3 kcal/mol
unfolding enthalpy (van 't Hoff): 97 kcal/mol
